Source: patent publication US20140348747A1 (PROMEGA, published 2014)

Legend:
NLpoly 11S (12-A51T) [1] = molecular target: T1, NLpoly 11S (12-A51T); experiment: luminescence complementation titration of synthetic NLpep on NLpoly E. coli lysate; one site-specific binding fit
T1 construct: E. coli clarified lysate; also called 12S-51
T1 chain: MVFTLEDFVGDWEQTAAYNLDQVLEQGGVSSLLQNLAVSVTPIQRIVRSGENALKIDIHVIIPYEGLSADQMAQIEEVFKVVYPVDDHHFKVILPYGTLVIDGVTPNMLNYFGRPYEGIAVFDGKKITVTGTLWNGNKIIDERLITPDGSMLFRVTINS

NLpoly 11S (12-A51T) [2] = molecular target: T1, NLpoly 11S (12-A51T); experiment: luminescence complementation titration; one site-specific binding fit

| Binder | Kd (NLpoly 11S (12-A51T) [1]) [nM] | fold improved affinity over NLpolyWT:NLpepWT (NLpoly 11S (12-A51T) [2]) [fold] |
| --- | --- | --- |
| Ac-VSGWRLFKKIS-NH2 (synthetic peptide) [NLpep86] | < 1 | 10000 |
| Ac-VSGWRLFKKISN-NH2 (synthetic peptide) [NLpep80] | < 1 | 10000 |
